Test results as given in the RNAGym collection of RNA variant scans (doi:10.7554/elife.80360).

B1: Hairpin Ribozyme (parent)
chain: GUCCUCUUUCACGUGCGCGUGAAAGAGAGAAGUGAACCAGAGAAACACACGUUGUGGUAUAUUACCUGGUA

Variants of: B1
Test: self-cleavage, relative activity (ratio to wild type); higher = more cleavage; co-transcriptional

Question: Which self-cleavage does the source give for GUCCUCUUUCACGUGCGCGUGAAAGAGAGAAGUGAACCAUAGAAACACACGUUGUGGUUUAUUACCUGGUA [G40U A59U] here?
Answer: Its self-cleavage is 0.14.

Question: Which self-cleavage does the source give for GUCCUCUUUCACGUGCGCGUGAAAGAGAGAAGUGAACCAUAGAAACACACGUUGUGGUAUCUUACCUGGUA [G40U A61C] here?
Answer: The self-cleavage was 0.0593.

Question: For GUCCUCUUUCACGUGCGCGUGAAAGAGAGAAGUGAACCAUAGAAACACACGUUGUGGUAUUUUACCUGGUA [G40U A61U], which self-cleavage is on record?
Answer: The self-cleavage was 0.132.

Question: For GUCCUCUUUCACGUGCGCGUGAAAGAGAGAAGUGAACCAUAGAAACACACGUUGUGGUAUAUUGCCUGGUA [G40U A64G], which self-cleavage is on record?
Answer: The self-cleavage was 0.103.

Question: Which self-cleavage does the source give for GUCCUCUUUCACGUGCGCGUGAAAGAGAGAAGUGAACCAUAGAAACACACGUUGUGGUAUAUUACCUGGUU [G40U A71U] here?
Answer: The self-cleavage was 0.131.

Question: With GUCCUCUUUCACGUGCGCGUGAAAGAGAGAAGUGAACCAUAGAAAAACACGUUGUGGUAUAUUACCUGGUA [G40U C46A] as the variant, how does the self-cleavage read?
Answer: Its self-cleavage is 0.16.

Question: Which self-cleavage does the source give for GUCCUCUUUCACGUGCGCGUGAAAGAGAGAAGUGAACCAUAGAAAUACACGUUGUGGUAUAUUACCUGGUA [G40U C46U] here?
Answer: The self-cleavage was 0.106.

Question: With GUCCUCUUUCACGUGCGCGUGAAAGAGAGAAGUGAACCAUAGAAACACAUGUUGUGGUAUAUUACCUGGUA [G40U C50U] as the variant, how does the self-cleavage read?
Answer: The self-cleavage was 0.11.

Question: For GUCCUCUUUCACGUGCGCGUGAAAGAGAGAAGUGAACCAUAGAAACACACGUUGUGGUAUAUUACAUGGUA [G40U C66A], which self-cleavage is on record?
Answer: Its self-cleavage is 0.593.

Question: For GUCCUCUUUCACGUGCGCGUGAAAGAGAGAAGUGAACCAUAGAAACACACGUUGUGGUAUAUUACGUGGUA [G40U C66G], which self-cleavage is on record?
Answer: Its self-cleavage is 0.11.

Question: With GUCCUCUUUCACGUGCGCGUGAAAGAGAGAAGUGAACCAUACAAACACACGUUGUGGUAUAUUACCUGGUA [G40U G42C] as the variant, how does the self-cleavage read?
Answer: Its self-cleavage is 0.0925.

Question: For GUCCUCUUUCACGUGCGCGUGAAAGAGAGAAGUGAACCAUAGAAACACACAUUGUGGUAUAUUACCUGGUA [G40U G51A], which self-cleavage is on record?
Answer: The self-cleavage was 0.283.

Question: Which self-cleavage does the source give for GUCCUCUUUCACGUGCGCGUGAAAGAGAGAAGUGAACCAUAGAAACACACUUUGUGGUAUAUUACCUGGUA [G40U G51U] here?
Answer: Its self-cleavage is 0.179.

Question: For GUCCUCUUUCACGUGCGCGUGAAAGAGAGAAGUGAACCAUAGAAACACACGUUAUGGUAUAUUACCUGGUA [G40U G54A], which self-cleavage is on record?
Answer: Its self-cleavage is 0.157.

Question: Which self-cleavage does the source give for GUCCUCUUUCACGUGCGCGUGAAAGAGAGAAGUGAACCAUAGAAACACACGUUCUGGUAUAUUACCUGGUA [G40U G54C] here?
Answer: Its self-cleavage is 0.155.

Question: Which self-cleavage does the source give for GUCCUCUUUCACGUGCGCGUGAAAGAGAGAAGUGAACCAUAGAAACACACGUUGUGAUAUAUUACCUGGUA [G40U G57A] here?
Answer: The self-cleavage was 0.128.

Question: For GUCCUCUUUCACGUGCGCGUGAAAGAGAGAAGUGAACCAUAGAAACACACGUUGUGGUAUAUUACCUUGUA [G40U G68U], which self-cleavage is on record?
Answer: Its self-cleavage is 0.195.

Question: Which self-cleavage does the source give for GUCCUCUUUCACGUGCGCGUGAAAGAGAGAAGUGAACCAUAGAAACACACGUUGUGGUAUAUUACCUGAUA [G40U G69A] here?
Answer: The self-cleavage was 0.143.

Question: With GUCCUCUUUCACGUGCGCGUGAAAGAGAGAAGUGAACCAUAGAAACACACGUUGAGGUAUAUUACCUGGUA [G40U U55A] as the variant, how does the self-cleavage read?
Answer: Its self-cleavage is 0.104.

Question: For GUCCUCUUUCACGUGCGCGUGAAAGAGAGAAGUGAACCAUAGAAACACACGUUGUGGCAUAUUACCUGGUA [G40U U58C], which self-cleavage is on record?
Answer: Its self-cleavage is 0.278.

Question: Which self-cleavage does the source give for GUCCUCUUUCACGUGCGCGUGAAAGAGAGAAGUGAACCAUAGAAACACACGUUGUGGUAGAUUACCUGGUA [G40U U60G] here?
Answer: The self-cleavage was 0.128.

Question: Which self-cleavage does the source give for GUCCUCUUUCACGUGCGCGUGAAAGAGAGAAGUGAACCAUAGAAACACACGUUGUGGUAUAUUACCAGGUA [G40U U67A] here?
Answer: The self-cleavage was 0.159.

Question: With GUCCUCUUUCACGUGCGCGUGAAAGAGAGAAGUGAACCAUAGAAACACACGUUGUGGUAUAUUACCUGGAA [G40U U70A] as the variant, how does the self-cleavage read?
Answer: Its self-cleavage is 0.123.

Question: For GUCCUCUUUCACGUGCGCGUGAAAGAGAGAAGUGAACCAGCGUAACACACGUUGUGGUAUAUUACCUGGUA [A41C A43U], which self-cleavage is on record?
Answer: The self-cleavage was 0.13.

Question: With GUCCUCUUUCACGUGCGCGUGAAAGAGAGAAGUGAACCAGCGAGACACACGUUGUGGUAUAUUACCUGGUA [A41C A44G] as the variant, how does the self-cleavage read?
Answer: Its self-cleavage is 0.241.

Question: For GUCCUCUUUCACGUGCGCGUGAAAGAGAGAAGUGAACCAGCGAUACACACGUUGUGGUAUAUUACCUGGUA [A41C A44U], which self-cleavage is on record?
Answer: The self-cleavage was 0.154.

Question: For GUCCUCUUUCACGUGCGCGUGAAAGAGAGAAGUGAACCAGCGAAACCCACGUUGUGGUAUAUUACCUGGUA [A41C A47C], which self-cleavage is on record?
Answer: Its self-cleavage is 0.468.

Question: For GUCCUCUUUCACGUGCGCGUGAAAGAGAGAAGUGAACCAGCGAAACACACGUUGUGGUGUAUUACCUGGUA [A41C A59G], which self-cleavage is on record?
Answer: Its self-cleavage is 0.152.

Question: Which self-cleavage does the source give for GUCCUCUUUCACGUGCGCGUGAAAGAGAGAAGUGAACCAGCGAAACACACGUUGUGGUAUCUUACCUGGUA [A41C A61C] here?
Answer: The self-cleavage was 0.456.

Question: For GUCCUCUUUCACGUGCGCGUGAAAGAGAGAAGUGAACCAGCGAAACACACGUUGUGGUAUAUUCCCUGGUA [A41C A64C], which self-cleavage is on record?
Answer: Its self-cleavage is 0.285.

Question: With GUCCUCUUUCACGUGCGCGUGAAAGAGAGAAGUGAACCAGCGAAACACACGUUGUGGUAUAUUACCUGGUC [A41C A71C] as the variant, how does the self-cleavage read?
Answer: The self-cleavage was 1.53.

Question: With GUCCUCUUUCACGUGCGCGUGAAAGAGAGAAGUGAACCAGCGAAAAACACGUUGUGGUAUAUUACCUGGUA [A41C C46A] as the variant, how does the self-cleavage read?
Answer: Its self-cleavage is 0.0559.

Question: For GUCCUCUUUCACGUGCGCGUGAAAGAGAGAAGUGAACCAGCGAAAUACACGUUGUGGUAUAUUACCUGGUA [A41C C46U], which self-cleavage is on record?
Answer: Its self-cleavage is 0.0492.

Question: With GUCCUCUUUCACGUGCGCGUGAAAGAGAGAAGUGAACCAGCGAAACAAACGUUGUGGUAUAUUACCUGGUA [A41C C48A] as the variant, how does the self-cleavage read?
Answer: Its self-cleavage is 0.218.

Question: With GUCCUCUUUCACGUGCGCGUGAAAGAGAGAAGUGAACCAGCGAAACACACGUUGUGGUAUAUUAACUGGUA [A41C C65A] as the variant, how does the self-cleavage read?
Answer: The self-cleavage was 0.782.

Question: Which self-cleavage does the source give for GUCCUCUUUCACGUGCGCGUGAAAGAGAGAAGUGAACCAGCGAAACACACGUUGUGGUAUAUUAGCUGGUA [A41C C65G] here?
Answer: Its self-cleavage is 0.247.

Question: With GUCCUCUUUCACGUGCGCGUGAAAGAGAGAAGUGAACCAGCGAAACACACGUUGUGGUAUAUUAUCUGGUA [A41C C65U] as the variant, how does the self-cleavage read?
Answer: Its self-cleavage is 0.513.

Question: With GUCCUCUUUCACGUGCGCGUGAAAGAGAGAAGUGAACCAGCCAAACACACGUUGUGGUAUAUUACCUGGUA [A41C G42C] as the variant, how does the self-cleavage read?
Answer: The self-cleavage was 0.218.
